These results are taken from patent US20240417469A1 (CONCEPT TO MEDICINE BIOTECH, published 2024).

As a reminder, the EC50 is the concentration needed to bring the measured effect to its halfway point. Read a low EC50 as an effect from little substance. For orientation: Kd means the concentration at which binding is half-saturated. Broadly, the koff is a measure of how fast the partners let go of each other. The kon is the second-order rate constant of association. What is called EC50 (read off the curve) is the concentration needed to bring the measured effect to its halfway point. A lower EC50 (read off the curve) goes with an effect from little substance.

Changes are numbered by the printed parent chain. “And” between values parts separate entries of the source, which are not always exact repeats. Equal values may be shown once. Read-outs that look alike come from different tables or passages of the source.

Test [1] deals with T1, human CD3 protein (human, UniProt P07766 23-126; P04234 22-105).
T1 construct: ELISA coating protein; also called Human CD3D & CD3E Heterodimer Protein
The test is described as follows: ELISA, plate-coated CD3. (In an ELISA, binding on a coated surface is turned into a signal by an enzyme label.)

The target of test [2] is T2, cynomolgus CD3 protein (cynomolgus).
T2 construct: ELISA coating protein
The test is described as follows: ELISA, plate-coated CD3.

For test [3], the target named is T1, human CD3 protein. The test is described as follows: ELISA, plate-coated CD3. This is another data set of the same source.
In test [4] the target is T3, recombinant CD3D&E protein (human CD3-his tag) (human, UniProt P04234 22-105; P07766 23-126, limits assumed).
T3 construct: Analyte in Biacore; also called CD3D&E-His; CD3d&ε-His
Description: SPR Biacore, Ab captured on Protein A. For orientation: SPR reads the build-up and loss of mass on a sensor chip optically.

Test [5] deals with T3, recombinant CD3D&E protein (human …). The test is described as follows: SPR Biacore, Ab captured on Protein A. This is another data set of the same source.
The target of test [6] is T4, cynomolgus CD3 on cynomolgus PBMC (cynomolgus, UniProt Q95LI5 22-198; Q95LI8 22-171; Q95LI7 23-181).
T4 construct: whole, on cells; Native CD3 complex on cynomolgus T cells; also called cyno PBMC; cynoPBMCs
Description: FACS on cynomolgus PBMC, PE anti-human IgG Fc secondary, geometric mean fluorescence.

Test [7] concerns the target T5, human CD3 on cells (human PBMC; Jurkat TCR/CD3 NFAT reporter cells) (human, UniProt P07766 23-207; P04234 22-171; P09693 23-182). The test is described as follows: cell-based or functional assay.
Test [8] addresses T5, human CD3 on cells (human PBMC; Jurkat …). Description: cell-based or functional assay. This is another data set of the same source.
Test [9] has the same target. Description: FACS on human PBMC, PE anti-human IgG Fc secondary, geometric mean fluorescence.

T3 sequence (P04234 22-105 limits assumed, chain 1 of 2): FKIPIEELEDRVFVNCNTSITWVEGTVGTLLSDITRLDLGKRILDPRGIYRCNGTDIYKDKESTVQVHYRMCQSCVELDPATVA
T3 sequence (P07766 23-126 limits assumed, chain 2 of 2): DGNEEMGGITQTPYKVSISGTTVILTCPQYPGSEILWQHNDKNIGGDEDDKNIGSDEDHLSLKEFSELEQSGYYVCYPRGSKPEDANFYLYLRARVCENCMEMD
T2 sequence (Q95LI5 22-117, chain 1 of 2): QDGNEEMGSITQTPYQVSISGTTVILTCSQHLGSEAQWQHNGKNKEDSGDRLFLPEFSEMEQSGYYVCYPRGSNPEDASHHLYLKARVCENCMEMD
T2 sequence (Q95LI8 22-105, chain 2 of 2, further chain): as the sequence (P04234 22-105 limits assumed, chain 1 of 2) above, with I5V, N15K, I20V, S32T, D33N, I34N, T64A, S74N, V83L counted along it
T5 sequence (P07766 23-207, chain 1 of 3): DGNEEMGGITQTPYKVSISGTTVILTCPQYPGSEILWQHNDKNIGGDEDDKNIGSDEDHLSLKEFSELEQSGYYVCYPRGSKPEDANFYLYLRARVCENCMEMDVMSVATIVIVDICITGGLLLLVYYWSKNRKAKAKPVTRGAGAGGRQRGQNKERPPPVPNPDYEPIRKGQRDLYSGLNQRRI
T5 sequence (P04234 22-171, chain 2 of 3): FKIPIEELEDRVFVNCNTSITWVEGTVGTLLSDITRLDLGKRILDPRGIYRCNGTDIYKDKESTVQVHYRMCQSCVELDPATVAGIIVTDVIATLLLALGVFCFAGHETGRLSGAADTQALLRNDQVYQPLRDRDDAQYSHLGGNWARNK
T5 sequence (P09693 23-182, chain 3 of 3): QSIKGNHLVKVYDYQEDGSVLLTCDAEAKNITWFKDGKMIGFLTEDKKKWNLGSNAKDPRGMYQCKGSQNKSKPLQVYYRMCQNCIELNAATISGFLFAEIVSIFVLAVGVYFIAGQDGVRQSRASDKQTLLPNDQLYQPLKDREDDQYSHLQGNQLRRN
T1 sequence (P07766 23-126 limits assumed, chain 1 of 2): as the sequence (P07766 23-126 limits assumed, chain 2 of 2) above
T1 sequence (P04234 22-105 limits assumed, chain 2 of 2): as the sequence (P04234 22-105 limits assumed, chain 1 of 2) above
T4 sequence (Q95LI5 22-198, chain 1 of 3): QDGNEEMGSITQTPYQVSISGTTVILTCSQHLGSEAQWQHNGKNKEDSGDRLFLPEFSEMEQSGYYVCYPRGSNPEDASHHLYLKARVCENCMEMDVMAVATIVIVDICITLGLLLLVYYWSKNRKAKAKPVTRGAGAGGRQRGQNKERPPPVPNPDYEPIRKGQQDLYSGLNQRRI
T4 sequence (Q95LI8 22-171, chain 2 of 3): as the sequence (P04234 22-171, chain 2 of 3) above, with I5V, N15K, I20V, S32T, D33N, I34N, T64A, S74N, V83L, H141R counted along it
T4 sequence (Q95LI7 23-181, chain 3 of 3): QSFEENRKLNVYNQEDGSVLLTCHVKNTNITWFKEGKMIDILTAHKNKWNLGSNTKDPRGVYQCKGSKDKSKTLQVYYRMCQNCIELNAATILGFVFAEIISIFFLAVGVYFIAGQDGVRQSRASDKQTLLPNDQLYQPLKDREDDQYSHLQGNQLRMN

B1: 192A7B9 chimeric mAb (antibody, V domains shown)
VH: QVQLKESGPGLVQPSQTLSLNCTVSGFSLTSYNVHWVRQPPGKGLEWMGRMRYNGDTSYNSALKSRLSISRDTSKNQVFLKMNSLQTDDTGTYYCTRGPRGGYYSALFDYWGQGVMVTVSS
VL: DIQMTQSPSFLSASVGDRVTINCKASQNINRYLNWYQQKLGDAPKVLISIANSLQTGIPSRFSGSGSGTDFTLTISSLQPEDVATYFCLQHNSWYTFGAGTKLELK
notes: Chimeric mAb
As for B1, the EC50 in [1] was 1.91 ng/mL; in test [2], 2.16 ng/mL; in [3], 2.53 ng/mL and 2.85 ng/mL and 2.16 ng/mL and 2.3 ng/mL. The Kd in [4] and in [5] was 6.34 nM throughout. In addition, the koff in [4] and in [5] was 0.000442 s⁻¹ throughout. The kon in test [4] and in [5] was 69700 M⁻¹ s⁻¹ each time. Also, the binding result in test [6] is on record as “binds”.

B2: 155A9B1 chimeric mAb (antibody, V domains shown)
VH: B1 VH with N21T, M51V, V78A, T87I, R100Y, Y103S, Y104S, S105E, A106P
VL: DIKMTQSPSFLSASVGDRVTINCKASQNINKYLNWFQQKLGEAPRLLIYTTNNLQTGIPSRFSGSGSGTDFTLTISSLQPEDVATYFCLQHNSGYTFGAGTKLELK
notes: Chimeric mAb
As for B2, the EC50 in test [1] is 2.15 ng/mL; in test [2], 2.33 ng/mL; in [3], 2.7 ng/mL and 2.54 ng/mL and 2.34 ng/mL. The dissociation constant Kd in test [4] and in test [5] was 36.1 nM in each case. In addition, the koff in test [4] and in test [5] was 0.00207 s⁻¹ in each case. The kon in [4] and in [5] was 57200 M⁻¹ s⁻¹ in each case. Further, in test [6], the binding result is “binds”.

B3: 153A6B1 chimeric mAb (antibody, V domains shown)
VH: B1 VH with N21T, V34I, M51I, N83S, R100Y, Y103S, Y104R, S105E, A106P
VL: B2 VL with S14A, A25T, E42A, R45K, N92G
notes: Chimeric mAb of the hybridoma clone; also called 153A6B1C8
For the molecule B3, the EC50 is 2.79 ng/mL in test [1]; 2.88 ng/mL in [2]; 3.42 ng/mL and 2.91 ng/mL and 2.74 ng/mL in test [3]. For the same molecule, the dissociation constant (Kd) in test [4] and in test [5] was 8.69 nM each time. The koff in [4] and in test [5] was 0.000694 s⁻¹ throughout. Moreover, the kon in test [4] and in test [5] was 79900 M⁻¹ s⁻¹ throughout. Also, the binding result in [6] is reported as “binds”.

B4: Hu155A9B1-6 (antibody, V domains shown)
VH: EVQLQESGPGLVKPSETLSLTCTVSGFSLTSYNVHWVRQPPGKGLEWMGRVRYNGDTSYNSALKSRLTISRDTSKNQASLKLSSVTAADTAVYYCTRGPYGGSSEPLFDYWGQGTMVTVSS
VL: DIQMTQSPSSLSASVGDRVTITCKASQNINKYLNWYQQKPGKAPRLLIYTTNNLQTGVPSRFSGSGSGTDFTLTISSLQPEDFATYYCLQHNSGYTFGQGTKLEIK
notes: humanized mAb
In the case of B4, in test [7], the “% of SP34” value is 84.8% and the Emax was 4300. Also, in test [8], the “CD3-NFAT Activity by CD3 mAb” value is above 50 % SP34. Besides, the EC50 in test [3] is 4.16 ng/mL. In addition, in test [5], the Kd was determined as 62.1 nM, the koff worked out at 0.00593 s⁻¹ and the kon came to 95400 M⁻¹ s⁻¹.

B5: SP34 monoclonal antibody (antibody, human IgG1, lambda, N297A, V domains shown)
VH: EVQLVESGGGLVQPKGSLKLSCAASGFTFNTYAMNWVRQAPGKGLEWVARIRSKYNNYATYYADSVKDRFTISRDDSQSILYLQMNNLKTEDTAMYYCVRHGNFGNSYVSWFAYWGQGTLVTVSA
VL: QAVVTQESALTTSPGETVTLTCRSSTGAVTTSNYANWVQEKPDHLFTGLIGGTNKRAPGVPARFSGSLIGDKAALTITGAQTEDEAIYFCALWYSNLWVFGGGTKLTVLG
notes: also called SP34 (Biointron, B6762)
Take B5: in [7], the “% of SP34” value was 100%. In test [1], this molecule had a concentration for a half-maximal effect (EC50) of 6.48 ng/mL. The EC50 in [2] turned out to be 6.18 ng/mL. Further, in test [4], the dissociation constant Kd amounted to 6.89 nM, the koff worked out at 0.00292 s⁻¹ and the kon came out at 424000 M⁻¹ s⁻¹. Further, in [9], the “EC50 (read off the curve)” value is around 1 nM. Moreover, the binding result in test [6] is “binds”.
